Results on twelve molecules are retold here after US20190127468A1 (ONCOIMMUNE, published 2019).

Test [1] addresses T1, mouse CTLA4-Fc fusion protein (mouse, UniProt P09793 36-162, limits assumed).
T1 construct: also called mCTLA4-Fc; mCTLA-4; not shown: Fc portion, not described
The experiment in a line: blocking ELISA: plate B7-2, biotinylated mouse CTLA4-Fc with the antibody, HRP-streptavidin; blocked ligand B7-2.

Test [2] deals with T1, mouse CTLA4-Fc fusion protein. The experiment in a line: ELISA, binding to soluble mouse CTLA4-Fc (the legend gives no further details of the format).
Test [3] shares this target. The experiment in a line: ELISA, plate-coated mCTLA4-Fc, biotinylated antibody.
Test [4] concerns the target T2, Control IgG1-Fc (human, UniProt P01857-1 99-330 = IgG part, limits assumed).
T2 construct: domain: Fc; also called hIg-Fc; hIgG
The experiment in a line: ELISA: hIgGFc coated on the plate (negative control), biotinylated antibody in solution, HRP-streptavidin, OD450.

Test [5] addresses T3, huCTLA4 (antigen of the Octet experiments) (human, UniProt P16410 37-162, limits assumed).
T3 construct: Construct of the soluble antigen not described; also called the antigen
The experiment in a line: BLI (Octet Red96), antibody on anti-hIgG Fc biosensor, huCTLA4 in solution, 1:1 fit.

In test [6] the target is T3, huCTLA4 (antigen of the Octet …). The experiment in a line: BLI (Octet), purified 0.1 L material, replicate 1.
Test [7] shares this target. The experiment in a line: BLI (Octet), purified 0.1 L material, replicate 2.
Test [8] has as its target T4, M14.
T4 construct: human CTLA-4Fc mutant; also called CTLA-4Fc M14
The experiment in a line: ELISA: CTLA-4Fc protein coated on the plate, biotinylated antibody in solution, HRP-streptavidin, OD450.

Test [9] addresses T5, M16.
T5 construct: human CTLA-4Fc mutant; also called CTLA-4Fc M16
T5 mutant human CTLA-4 extracellular domain fused to IgG1 Fc: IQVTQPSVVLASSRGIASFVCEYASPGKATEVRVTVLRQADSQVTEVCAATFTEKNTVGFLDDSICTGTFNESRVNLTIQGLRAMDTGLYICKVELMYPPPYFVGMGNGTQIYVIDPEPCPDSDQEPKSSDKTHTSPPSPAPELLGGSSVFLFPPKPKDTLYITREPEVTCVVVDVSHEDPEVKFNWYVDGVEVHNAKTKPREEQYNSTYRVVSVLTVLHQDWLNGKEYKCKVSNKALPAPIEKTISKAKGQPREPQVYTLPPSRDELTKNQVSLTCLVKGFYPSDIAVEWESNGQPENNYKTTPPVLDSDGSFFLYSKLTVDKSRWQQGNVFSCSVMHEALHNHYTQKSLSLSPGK
Described as above.

Test [10] has as its target T6, M12.
T6 construct: human CTLA-4Fc with clusters of murine Ctla-4 residues; also called CTLA-4Fc M12
The test is described as above.

The target of test [11] is T2, Control IgG1-Fc. The experiment in a line: ELISA: hIgGFc coated on the plate (negative control), biotinylated antibody in solution, HRP-streptavidin, OD450. This is another data set of the same source.
Test [12] has as its target T7, mouse CTLA4 in cells of Ctla4 m/m (WT) mice (mouse, UniProt P09793 36-223).
T7 construct: whole, on cells; also called murine Ctla-4
The experiment in a line: flow cytometry, intracellular staining of CTLA4 in spleen cells of Ctla4 m/m mice, gated on CD3+CD4+.

For test [13], the target named is T8, human CTLA-4Fc mutant protein M6 (human).
T8 construct: also called Mutant 6
The experiment in a line: ELISA on coated target; binder 100 ng/ml.

Read-outs that look alike come from different tables or passages of the source.

T3 sequence (P16410 37-162 limits assumed): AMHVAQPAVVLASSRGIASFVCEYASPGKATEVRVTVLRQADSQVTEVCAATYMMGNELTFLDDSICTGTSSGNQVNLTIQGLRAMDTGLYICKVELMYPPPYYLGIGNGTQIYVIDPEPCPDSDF

B1: anti-mouse CTLA4 mAb 9D9 (antibody, V domains shown)
VH: EAKLQESGPVLVKPGASVKMSCKASGYTFTDYYMNWVKQSHGKSLEWIGVINPYNGDTSYNQKFKGKATLTVDKSSSTAYMELNSLTSEDSAVYYCARYYGSWFAYWGQGTLITVST
VL: DIVMTQTTLSLPVSLGDQASISCRSSQSIVHSNGNTYLEWYLQKPGQSPKLLIYKVSNRFSGVPDRFSGSGSGTDFTLKISRVEAEDLGVYYCFQGSHVPYTFGGGTKLEIK
In the case of B1, the “IC50 (read off the curve)” value in [1] was ~1 µg/mL. For the same molecule, the “EC50 (read off the curve)” value in test [2] was ~0.4 µg/mL.

B2: Humanized HC1 + LC2 (PP4631) (antibody, IgG1, V domains shown)
VH: QVQLQESGPGLVKPSETLSLTCTVSGFSLTSYGLSWIRQPPGKGLEWIGYIWYDGNTNFHPSLKSRVTISKDTSKNQFSLKLSSVTAADTAVYYCAKTEGHYYGSNYGYYALDYWGQGTSVTVSS
VL: DIQMTQSPSSLSASVGDRVTITCRASENIYSNLAWYQQKQGKAPKLLLYAATNLQDGVPSRFSGSGSGTDYTLTISSLQPEDFATYFCQHLWGTPYTFGQGTKLEIK
notes: Humanized L3D10; also called H3106 + L3107; HL12
For the molecule B2, the results for the binding result in [3] and in test [4] were “no binding” and “no binding (tested: 0.2 µg/mL)”, respectively.

B3: Humanized HC1 + LC1 (PP4630) (antibody, IgG1, V domains shown)
VH: QVQLQESGPGLVKPSETLSLTCTVSGFSLTSYGLSWIRQPPGKGLEWIGYIWYDGNTNFHPSLKSRVTISKDTSKNQFSLKLSSVTAADTAVYYCAKTEGHYYGSNYGYYALDYWGQGTSVTVSS
VL: DIQMTQSPSSLSASVGDRVTITCRASENIYSNLAWYQQKPGKAPKLLLYAATNLQSGVPSRFSGSGSGTDFTLTISSLQPEDFATYYCQHLWGTPYTFGGGTKLEIK
notes: Humanized L3D10; also called H3106 + L3106
As for B3, in [5], the dissociation constant Kd was determined as 13 nM, the koff was 0.0018 s⁻¹ and the kon amounted to 130000 M⁻¹ s⁻¹.

B4: Humanized HC2 + LC2 (PP4634) (antibody, IgG1, V domains shown)
VH: QVQLQESGPGLVKPSETLSLTCTVSGFSLTSYGLSWIRQPPGKGLEWIGYIWYDGNTNFHSSLKSRVTISKDTSKSQVSLKLSSVTAADTAVYYCAKTEGHYYGSNYGYYALDYWGQGTLVTVSS
VL: DIQMTQSPSSLSASVGDRVTITCRASENIYSNLAWYQQKQGKAPKLLLYAATNLQDGVPSRFSGSGSGTDYTLTISSLQPEDFATYFCQHLWGTPYTFGQGTKLEIK
notes: Humanized L3D10; also called H3107 + L3107
With B4, in [5], the equilibrium dissociation constant (Kd) is 6.8 nM, the koff worked out at 0.0019 s⁻¹ and the kon amounted to 280000 M⁻¹ s⁻¹.

B5: Humanized HC3 + LC3 (PP4638) (antibody, IgG1, V domains shown)
VH: QVQLQESGPGLVKPSETLSLTCTVSGFSLTSYGLSWIRQPPGKGLEWIGYIWYDGNTNFHSPLKSRVTISVDTSKNQFSLKLSSVTAADTAVYYCAKTEGHYYGSNYGYYALDYWGQGTLVTVSS
VL: DIQMTQSPSSLSASVGDRVTITCRASENIYSNLAWYQQKPGKAPKLLIYAATSLQSGVPSRFSGSGSGTDFTLTISSLQPEDFATYYCQHLWGTPYTFGGGTKVEIK
notes: Humanized L3D10; also called H3108 + L3108
In the case of B5, in test [5], the Kd is 8.1 nM, the koff came to 0.0023 s⁻¹ and the kon was 290000 M⁻¹ s⁻¹. For the same molecule, in test [6], the Kd turned out to be 9.4 nM, the koff came out at 0.0021 s⁻¹ and the on-rate (kon) was 230000 M⁻¹ s⁻¹. Also, in test [7], the Kd stood at 11 nM, the dissociation rate constant (koff) is 0.0022 s⁻¹ and the kon worked out at 210000 M⁻¹ s⁻¹.

B6: Humanized HC1 + LC3 (PP4632) (antibody, IgG1, V domains shown)
VH: QVQLQESGPGLVKPSETLSLTCTVSGFSLTSYGLSWIRQPPGKGLEWIGYIWYDGNTNFHPSLKSRVTISKDTSKNQFSLKLSSVTAADTAVYYCAKTEGHYYGSNYGYYALDYWGQGTSVTVSS
VL: DIQMTQSPSSLSASVGDRVTITCRASENIYSNLAWYQQKPGKAPKLLIYAATSLQSGVPSRFSGSGSGTDFTLTISSLQPEDFATYYCQHLWGTPYTFGGGTKVEIK
notes: Humanized L3D10; also called H3106 + L3108
Turning to B6, in test [5], the Kd stood at 12 nM, the off-rate constant (koff) is 0.0019 s⁻¹ and the kon is 160000 M⁻¹ s⁻¹.

B7: Humanized HC3 + LC1 (PP4636) (antibody, IgG1, V domains shown)
VH: QVQLQESGPGLVKPSETLSLTCTVSGFSLTSYGLSWIRQPPGKGLEWIGYIWYDGNTNFHSPLKSRVTISVDTSKNQFSLKLSSVTAADTAVYYCAKTEGHYYGSNYGYYALDYWGQGTLVTVSS
VL: DIQMTQSPSSLSASVGDRVTITCRASENIYSNLAWYQQKPGKAPKLLLYAATNLQSGVPSRFSGSGSGTDFTLTISSLQPEDFATYYCQHLWGTPYTFGGGTKLEIK
notes: Humanized L3D10; also called H3108 + L3106
With B7, in test [5], the Kd was 8.7 nM, the koff was 0.0022 s⁻¹ and the kon was 250000 M⁻¹ s⁻¹.

B8: Humanized HC2 + LC1 (PP4633) (antibody, IgG1, V domains shown)
VH: QVQLQESGPGLVKPSETLSLTCTVSGFSLTSYGLSWIRQPPGKGLEWIGYIWYDGNTNFHSSLKSRVTISKDTSKSQVSLKLSSVTAADTAVYYCAKTEGHYYGSNYGYYALDYWGQGTLVTVSS
VL: DIQMTQSPSSLSASVGDRVTITCRASENIYSNLAWYQQKPGKAPKLLLYAATNLQSGVPSRFSGSGSGTDFTLTISSLQPEDFATYYCQHLWGTPYTFGGGTKLEIK
notes: Humanized L3D10; also called H3107 + L3106
B8: in test [5], the Kd amounted to 7.1 nM, the koff turned out to be 0.0014 s⁻¹ and the kon is 200000 M⁻¹ s⁻¹.

B9: Humanized HC3 + LC2 (PP4637) (antibody, IgG1, V domains shown)
VH: QVQLQESGPGLVKPSETLSLTCTVSGFSLTSYGLSWIRQPPGKGLEWIGYIWYDGNTNFHSPLKSRVTISVDTSKNQFSLKLSSVTAADTAVYYCAKTEGHYYGSNYGYYALDYWGQGTLVTVSS
VL: DIQMTQSPSSLSASVGDRVTITCRASENIYSNLAWYQQKQGKAPKLLLYAATNLQDGVPSRFSGSGSGTDYTLTISSLQPEDFATYFCQHLWGTPYTFGQGTKLEIK
notes: Humanized L3D10; also called H3108 + L3107; HL32
In the case of B9, the binding result in test [8] is reported as “no binding (tested: 0.2 µg/mL)”; in [9] it was “no binding (tested: 0.2 µg/mL)”; in [10], “no binding (tested: 0.2 µg/mL)”; in test [3] it was “no binding”; in test [11], “no binding (tested: 0.2 µg/mL)”.

B10: Humanized HC2 + LC3 (PP4635) (antibody, IgG1, V domains shown)
VH: QVQLQESGPGLVKPSETLSLTCTVSGFSLTSYGLSWIRQPPGKGLEWIGYIWYDGNTNFHSSLKSRVTISKDTSKSQVSLKLSSVTAADTAVYYCAKTEGHYYGSNYGYYALDYWGQGTLVTVSS
VL: DIQMTQSPSSLSASVGDRVTITCRASENIYSNLAWYQQKPGKAPKLLIYAATSLQSGVPSRFSGSGSGTDFTLTISSLQPEDFATYYCQHLWGTPYTFGGGTKVEIK
notes: Humanized L3D10; also called H3107 + L3108
In test [5], B10 showed a Kd of 8.4 nM, an off-rate constant (koff) of 0.002 s⁻¹ and a kon of 240000 M⁻¹ s⁻¹.

B11: chimeric L3D10 antibody (antibody, V domains shown)
VH: QVQLKESGPGLVAPSQSLSITCTVSGFSLTSYGLSWVRQPPGKGLEWLGVIWYDGNTNFHSALISRLTISKDNSKSQVFLELNSLQTDDTATYYCAKTEGHYYGSNYGYYALDYWGQGTSVTVSS
VL: DIQMTQSPASLSVSVGETVTITCRASENIYSNLAWYQQKQGKSPQLLVYAATNLADGVPSRFSGSGSGTQYSLKINSLQSEDFGTYFCQHLWGTPYTFGGGTKLEIKR
notes: Biotinylated in the ELISAs; also called Chimeric Parental; PP4629
As to B11, the binding result in [12] is “no binding”.

B12: chimeric L3D10 antibody (antibody, V domains shown)
VH: QVQLKESGPGLVAPSQSLSITCTVSGFSLTSYGLSWVRQPPGKGLEWLGVIWYDGNTNFHSALISRLTISKDNSKSQVFLELNSLQTDDTATYYCAKTEGHYYGSNYGYYALDYWGQGTSVTVSS
VL: DIQMTQSPASLSVSVGETVTITCRASENIYSNLAWYQQKQGKSPQLLVYAATNLADGVPSRFSGSGSGTQYSLKINSLQSEDFGTYFCQHLWGTPYTFGGGTKLEIKR
modifications: biotinylated (sites not given)
notes: Mouse L3D10 variable regions on human IgG1 with M252Y, S254T, T256E, S298A, E333A, K334A; Used biotinylated in the ELISA; also called Biotin-L3D10; PP4629
For B12, the OD450 in test [13] was 3.03 OD.
